According to patent publication US20240069021A1 (ASAHI KASEI, published 2024):

T1: ribosomal protein L7/L12 of Bacillus subtilis (BS), recombinant tagged fusion protein (Bacillus subtilis, UniProt P02394 1-123)
T1 sequence: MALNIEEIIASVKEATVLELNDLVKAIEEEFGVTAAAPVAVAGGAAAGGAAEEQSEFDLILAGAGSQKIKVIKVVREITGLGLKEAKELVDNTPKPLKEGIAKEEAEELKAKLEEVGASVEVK

T2: ribosomal protein L7/L12 of Pseudomonas aeruginosa (PA), recombinant tagged fusion protein (Pseudomonas aeruginosa, UniProt Q9HWC8 1-122)
T2 sequence: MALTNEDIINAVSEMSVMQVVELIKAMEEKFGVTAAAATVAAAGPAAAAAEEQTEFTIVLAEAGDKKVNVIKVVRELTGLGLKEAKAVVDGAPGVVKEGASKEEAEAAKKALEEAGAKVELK


Columns and labels:
[1] = molecular target: ribosomal protein L7/L12 of Enterobacter cloacae (ECL), recombinant tagged fusion protein (Enterobacter cloacae); assay: ELISA on coated recombinant L7/L12, antibody 10 ug/mL
[2] = molecular target: T1, ribosomal protein L7/L12 of Bacillus …; assay: as above
[3] = molecular target: T3, ribosomal protein L7/L12 of Escherichia coli (EC), recombinant tagged fusion protein (Escherichia coli, UniProt P0A7K2 1-121); assay: as above
[4] = molecular target: ribosomal protein L7/L12 of Citrobacter freundii (CF), recombinant tagged fusion protein (Citrobacter freundii); assay: as above
[5] = molecular target: T2, ribosomal protein L7/L12 of Pseudomonas …; assay: as above
[6] = molecular target: ribosomal protein L7/L12 of Klebsiella pneumoniae (KP), recombinant tagged fusion protein (Klebsiella pneumoniae); assay: as above
[7] = molecular target: ribosomal protein L7/L12 of Serratia liquefaciens (SL), recombinant tagged fusion protein (Serratia liquefaciens); assay: as above
[8] = molecular target: ribosomal protein L7/L12 of Listeria monocytogenes (LM), recombinant tagged fusion protein (Listeria monocytogenes); assay: as above
[9] = molecular target: ribosomal protein L7/L12 of Rahnella aquatilis (RA), recombinant tagged fusion protein (Rahnella aquatilis); assay: as above
[10] = molecular target: ribosomal protein L7/L12 of Salmonella enterica (SE), recombinant tagged fusion protein (Salmonella enterica); assay: as above
[11] = molecular target: ribosomal protein L7/L12 of Staphylococcus aureus (SA), recombinant tagged fusion protein (Staphylococcus aureus); assay: as above
[12] = molecular target: T3, ribosomal protein L7/L12 of Escherichia …; assay: ELISA on coated recombinant L7/L12 (10 ng/mL), antibody 10 ug/mL, A450; + means absorbance >= 0.3

Binder | absorbance (450 nm) [1] | absorbance (450 nm) [2] | absorbance (450 nm) [3] | absorbance (450 nm) [4] | absorbance (450 nm) [5] | absorbance (450 nm) [6] | absorbance (450 nm) [7] | absorbance (450 nm) [8] | absorbance (450 nm) [9] | absorbance (450 nm) [10] | absorbance (450 nm) [11] | binding result [12]
Generic Antibody C (CP141A190.1) (antibody, V domains shown) VH: QVQLQQPGAELVKPGASVKLSCKTSGYNFTSNWIHWVKQRPGQGLEWIGEINPSNGRANYNEKFKNKATLTVDKSSSTAFMHLSSLTSEDSAVYFCSRGDFDEGFTYWGQGTLVTVSA VL: QIVLTQSPAIMSASLGERVTMTCTASSNVNSDYLHWYQQKPGSSPRLWIYTTSNLASGVPTRFSGNGSGTSYSLTISSMEAEDAATYYCHQYHRSPRTFGGGTKLEIK | ≥ 0.3 | ≥ 0.3 | ≥ 0.3 | ≥ 0.3 | ≥ 0.3 | ≥ 0.3 | ≥ 0.3 | ≥ 0.3 | ≥ 0.3 | ≥ 0.3 | ≥ 0.3 | –
Specific Antibody A (HI142D11.3) (antibody, V domains shown) VH: EVQLQQSGAELVKPGASVKLSCTASGFNIKDTYIHWVKQRPEQGLEWIGRIDPANGNTKYDPKFQGKATITADTSSNTAYLQLSSLTSEDTAVYYCPRPYGYVGWYFDVWGAGTTVTVSS VL: DIVMTQSHKFMSTSVGDRVSITCKASQDVRNAVAWYQQKPGQSPKLLISSASYRYSGVPDRFTGSGSGTDFTFTISSVQAEDLAVYYCQQHYDTPPTFGGGTKLEIK | – | – | – | – | – | – | – | – | – | – | – | binds
Specific Antibody D (EC50C1) (antibody, V domains shown) VH: QVQLQQSGAELAKPGASVKMSCKASGYTFTSYWMNWVKQRPGQGLEWIGYINPNTGYTEYDQKFKDKATLTADKSSSTAYMQLSSLTSEDSAVYYCARYWAYFEYWGQGTTLTVSS VL: DIKMTQSPSSMYASLGERVTITCKASQDINSYLSWFQQKPGKSPKTLIYRANRLVDGVPSRFSGSGSGQDYSLTISSLEYEDMGIYYCLQYDEFRTFGGGTKLEIK | – | – | – | – | – | – | – | – | – | – | – | binds
Generic Antibody A (PA51B2) (antibody, V domains shown) VH: QVQLQQPGSVLVRPGASVKLSCKPSGYTFTGSWMHWTKQRPGQGLEWIGEIHPYSGNTNYNEKFRVKATLTVDTSSSTTYVDLSSLTSDDSAVYYCASGDFDAGFTYWGQGTLVTVSA VL: DIVLTQSPASLAVSLGRRATISCKASQSVDYDGDSYMNWYQQKPGQPPKLLIYVASNLESGIPARFSGSGSGTDFTLNIHPVEEEDAATYYCQQTNEDPFTFGAGTKLELK | ≥ 0.3 | ≥ 0.3 | ≥ 0.3 | ≥ 0.3 | ≥ 0.3 | ≥ 0.3 | ≥ 0.3 | ≥ 0.3 | ≥ 0.3 | ≥ 0.3 | ≥ 0.3 | –
Generic Antibody B (LP54A3) (antibody, V domains shown) VH: EVQLQQSGAELVKPGASVRLSCSASGFNIKDTYMHWMRQRPEQGLEWIGRIDPANGNAKYDPKFQVKATITADTSSNTASLQFSSLTSEDTAVYFCASESLDDMYYFDYWGQGTTLTVSS VL: DIVMTQSQKFMSTSVGDRVSVTCKASQNVGVNVAWYQQKPGQSPKALIYSASYRYSGVPDRFTGSGSGTDFTLTISNVQSEDLAEYFCQQYHSYLYTFGGGTKLEIK | – | ≥ 0.3 | ≥ 0.3 | – | ≥ 0.3 | – | – | – | – | – | – | –
